This data set concerns the molecule itself. Kind of data set: size exclusion chromatography, buffer A + 2 mM CaCl2. The source says:
FIG. 9: Site-directed mutagenesis of the SEQ-ID NO:3 fusion protein and its consequences. A previously described mutation (EP3248015 A1) that impairs heterotetramerization of S100A8/S100A9, namely E78A in the S100A9 polypeptide chain, was introduced into the fusion protein. This E78A mutant remains monomeric, even in the presence of CaCl₂.
Site directed mutagenesis was used to introduce the mutation E78A in the S100A9 chain (see EP3248015 A1) of the fusion protein (SEQ ID NO:3). In endogenous calprotectin, this mutation abrogates […] (Leukert N et al. Calcium-dependent tetramer formation of S100A8 and S100A9 is essential for biological activity (2006). J. Mol. Biol. 359: 961-972). Similary, introduction of this mutation into the fusion protein (SEQ-ID NO:3) prevented CaCl₂) dependent dimerization. The S200 size exclusion chromatography of the mutated and non-mutated fusion proteins (SEQ ID NO:3) in buffer A containing 2 mM CaCl₂) was performed as described in Examples 1 and 3 (FIG. 9).
For orientation: SEC sorts molecules by how far they enter the pores of the column.

B1: recombinant fusion polypeptide (SEQ ID NO:3) (other)
chain: MHHHHHHLEVLFQGPMTCKMSQLERNIETIINTFHQYSVKLGHPDTLNQGEFKELVRKDLQNFLKKENKNEKVIEHIMEDLDTNADKQLSFEEFIMLMARLTWASHEKMHEGDEGPGHHHKPGLGEGTPLEVLFQGPMLTELEKALNSIIDVYHKYSLIKGNFHAVYRDDLKKLLETECPQYIRKKGADVWFKELDINTDGAVNFQEFLILVIKMGVAAHKKSHEESHKE
notes: Single polypeptide, monomer 26.8 kDa, equal to an S100A8/S100A9 heterodimer; It dimerizes in 2 mM CaCl2, equal to the heterotetramer; also called rCAL (Mrp14-Mrp8 fusion)
B1: the binding result is on record as “binds”.

(Values after patent US20230074277A1 (BUEHLMANN LABORATORIES, published 2023).)
